Measurements: the supplement of paper PMC12042874
± gives the uncertainty stated by the source.

Assay: amyloid nucleation score (Sup35N fusion, yeast selection) (log enrichment); library NNK3; higher = more nucleation; inactive = no reads after selection
In short: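 After 24 hours of induction with 100 μM copper sulfate, psi-negative yeast expressing peptides of 20 random codons fused to Sup35N were grown for 7 days at 30°C on medium lacking adenine and uracil. Input and output plasmid inserts were sequenced with Illumina, and sequences with under 100 input reads were discarded. Scores for nucleation are the DiMSum log enrichment of output over input reads, centred on the mode score of non-aggregating sequences.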

Substance: NSVPRGMAFFLNAFFSLIYY
- amyloid nucleation score: inactive

Substance: SIGYDCLQSGAFKSLHTMAL
- amyloid nucleation score: inactive

Substance: FTNNCYHLAMY
- amyloid nucleation score: -0.456 ± 0.74

Substance: CSLLGKMLTYNSDYGFQLNY
- amyloid nucleation score: inactive

Substance: MFQPFYFHNFYISCKLA
- amyloid nucleation score: 1.95 ± 0.092

Substance: YIEAIYRDVPPECGTLLRTL
- amyloid nucleation score: inactive

Substance: MKGCWFWKVIENFHIKSHCR
- amyloid nucleation score: inactive

Substance: SPLLNPGPSWF
- amyloid nucleation score: inactive

Substance: WRMDSRYYCYYQFLSLSYQW
- amyloid nucleation score: inactive

Substance: SFVYVSALVSLHGGFADAKF
- amyloid nucleation score: 0.885 ± 0.22

Substance: GLRVTH
- amyloid nucleation score: inactive

Substance: KYCGLSRPIAFSPVVKKHLM
- amyloid nucleation score: inactive

Substance: LGVSLKGNYAYWFTLIWSDV
- amyloid nucleation score: inactive

Substance: ESKTCVVHLSAKCSLSEERT
- amyloid nucleation score: inactive

Substance: TFVKSVLSYVLGLELSLRGL
- amyloid nucleation score: inactive

Substance: IMRLHC
- amyloid nucleation score: inactive

Substance: ECVCCRYYLVCGGPILRQDL
- amyloid nucleation score: inactive

Substance: CTRITHGGGVTSLRNTSESN
- amyloid nucleation score: inactive

Substance: CIRSS
- amyloid nucleation score: inactive

Substance: FFENWKLGDFAYRRIGTLLK
- amyloid nucleation score: -0.515 ± 0.66

Substance: HCSCDGAIRYDILQSNHKE
- amyloid nucleation score: inactive

Substance: HCGYGLFNCK
- amyloid nucleation score: inactive

Substance: SRWVIGHVNTGSGGLESDKR
- amyloid nucleation score: inactive

Substance: LLTKSLNPYMMGCSSSIMQC
- amyloid nucleation score: inactive

Substance: AVTKNVTERFHMLMPKDWVG
- amyloid nucleation score: inactive

Substance: FIVFTDF
- amyloid nucleation score: inactive

Substance: LVFSRACTLVDTIE
- amyloid nucleation score: inactive

Substance: GPPLNYEVT
- amyloid nucleation score: inactive

Substance: KARANFVYAKFHFTRAP
- amyloid nucleation score: inactive

Substance: SHRVNWFLCSCLESYFMCNT
- amyloid nucleation score: -0.522 ± 0.78

Substance: LPHNIVLAKKTLKV
- amyloid nucleation score: inactive

Substance: MNKNIRGYDLFKMRMMDWCM
- amyloid nucleation score: inactive

Substance: RSKEMNVKASKNSMVHVSEV
- amyloid nucleation score: inactive

Substance: VMCLVSRPPQWSVLDVSTIM
- amyloid nucleation score: inactive

Substance: SYPERMLWSSVMADFKMRRP
- amyloid nucleation score: inactive

Substance: FCLFDFGILG
- amyloid nucleation score: inactive

Substance: LHGHTWSWSLDWLSYMTAVQ
- amyloid nucleation score: inactive

Substance: YILIL
- amyloid nucleation score: inactive

Substance: SLCVVGP
- amyloid nucleation score: -0.107 ± 0.6

Substance: ISSAYCGHIGLAAINRLILT
- amyloid nucleation score: inactive

Substance: PNCVISSLTFRWVIFSECEP
- amyloid nucleation score: inactive

Substance: SSLIWNLSCELLTWLHVRRW
- amyloid nucleation score: -1.3 ± 2.5

Substance: SRVLILM
- amyloid nucleation score: inactive

Substance: SGSAQLECASSRAYVMIVHL
- amyloid nucleation score: 0.425 ± 0.18

Substance: CLVNNLCVLR
- amyloid nucleation score: 0.047 ± 0.55

Substance: MLFSIICNFGNKFLTYKEFT
- amyloid nucleation score: 0.89 ± 0.24

Substance: KRLSCNFRSRSKSSGWPTLV
- amyloid nucleation score: inactive

Substance: YCALLRNAITVV
- amyloid nucleation score: inactive

Substance: ILVCESV
- amyloid nucleation score: inactive

Substance: VYWRTVFNLRLVLKSYGAMR
- amyloid nucleation score: inactive

Substance: KDLWCSDSRS
- amyloid nucleation score: inactive

Substance: LVVTYWEMRLVPADAK
- amyloid nucleation score: inactive

Substance: YFLSDLQRKGSGLETVRVCR
- amyloid nucleation score: inactive

Substance: TPRLSMDHTFVRWDCV
- amyloid nucleation score: inactive

Substance: KVSYSQTPISGRTDTPVPDR
- amyloid nucleation score: 0.294 ± 0.2

Substance: SSGNFA
- amyloid nucleation score: inactive

Substance: GFIQRKNQRGVKKCRESYYY
- amyloid nucleation score: inactive

Substance: WEELDYNSDPLLAGSVTDYM
- amyloid nucleation score: inactive

Substance: RSMYR
- amyloid nucleation score: inactive

Substance: FGSHYSFRIQKVFFAVQRSP
- amyloid nucleation score: 2.41 ± 0.082

Substance: PHMQCLINF
- amyloid nucleation score: inactive

Substance: LSSFIFCFSLYAVLTMGVVH
- amyloid nucleation score: inactive

Substance: VLVICWFRDDGYSVFLCCQT
- amyloid nucleation score: inactive

Substance: FYYRSFCRNGRRH
- amyloid nucleation score: inactive

Substance: IGFGSWFSKVSPNVEFVGAL
- amyloid nucleation score: inactive

Substance: LILVCSSGRAIMKRAPCKFR
- amyloid nucleation score: inactive

Substance: FCTPI
- amyloid nucleation score: inactive

Substance: IHFNWLIYITNTYVRRIFRC
- amyloid nucleation score: inactive

Substance: LQCLNQVRSRLVVLLLIFNV
- amyloid nucleation score: inactive

Substance: KLSCMSTIVCRYTFLQAKQT
- amyloid nucleation score: inactive

Substance: YWLSPDKICTYYLVWVRRAP
- amyloid nucleation score: inactive

Substance: TLDGLLRASMYSLIYWLVLM
- amyloid nucleation score: inactive

Substance: VFTPLCAYVVGYLYEVCGDD
- amyloid nucleation score: inactive

Substance: VLGSRVKGDYCRCLEMECIW
- amyloid nucleation score: inactive

Substance: SSYLMFDMLMRYYLNYFMCR
- amyloid nucleation score: inactive

Substance: LYIGQGSMIFFYSVVGFSAC
- amyloid nucleation score: 2.36 ± 0.087

Substance: DLWIYIVLYVVAHVALYKDG
- amyloid nucleation score: inactive

Substance: QHAQGYLRGSTMYFEMM
- amyloid nucleation score: 0.357 ± 0.25

Substance: VHLNCCTVLKEVRLFT
- amyloid nucleation score: 0.78 ± 0.26

Substance: HGERSDKMLDSGSPYMAPSG
- amyloid nucleation score: inactive

Substance: SSFTKLPFL
- amyloid nucleation score: inactive

Substance: HTYLFRSMS
- amyloid nucleation score: inactive

Substance: SSPRSMASYQRSKIRWVSEF
- amyloid nucleation score: inactive

Substance: SCSCESCYKGVAEYDLVKDV
- amyloid nucleation score: 1.32 ± 0.16

Substance: TISIVTWDIVRSKCMRRKVL
- amyloid nucleation score: inactive

Substance: LNLQPRVDVVLVLFRTRANK
- amyloid nucleation score: 0.767 ± 0.25

Substance: SGFLYCNLSKSSCYAFQAGG
- amyloid nucleation score: inactive

Substance: MVYPQLYTTKVVNVVPGLGS
- amyloid nucleation score: inactive

Substance: CEWNS
- amyloid nucleation score: inactive

Substance: GLPLEWDDSWNVKIVLLCWS
- amyloid nucleation score: inactive

Substance: SVKKESCCD
- amyloid nucleation score: inactive

Substance: FCFFSVSLDVLVHSGIC
- amyloid nucleation score: 0.417 ± 0.19

Substance: HCNFMRFCLRAFSSGMHWLF
- amyloid nucleation score: inactive

Substance: DAIEKD
- amyloid nucleation score: inactive

Substance: LVTIYW
- amyloid nucleation score: inactive

Substance: CCRFAVLRRLERSDQKGVWI
- amyloid nucleation score: inactive

Substance: LICNCHPRESSDPTFLCGLG
- amyloid nucleation score: inactive

Substance: CEQQSRYHMKFMPASLLSFK
- amyloid nucleation score: inactive

Substance: FFANKYSLFAVVTMLANFLY
- amyloid nucleation score: inactive

Substance: HFETNTVFQVFEICIVSCCY
- amyloid nucleation score: 2.34 ± 0.067

Substance: ITSCCFVTLISVMSYGPCFG
- amyloid nucleation score: 2.45 ± 0.089

Substance: QRVLY
- amyloid nucleation score: 0.864 ± 0.15

Substance: DTITRSTWIVCWRTE
- amyloid nucleation score: inactive

Substance: GCYIVM
- amyloid nucleation score: inactive

Substance: CWLSWYFATKLGAYWELSNG
- amyloid nucleation score: inactive

Substance: GLYMKVKFGYTEWQDFGQSS
- amyloid nucleation score: -0.237 ± 0.69

Substance: RCYVRFSRSRVVHIMLVYMP
- amyloid nucleation score: inactive

Substance: HYVIV
- amyloid nucleation score: inactive

Substance: ILSSKSTNENVSYFLLKM
- amyloid nucleation score: 0.794 ± 0.099

Substance: PVSICQFIVSMANFDLCSQG
- amyloid nucleation score: 1.93 ± 0.068

Substance: EPQYDSYTGGVSAFVVLKEH
- amyloid nucleation score: inactive

Substance: CLMVKHYFFVSSWRFNVFGI
- amyloid nucleation score: inactive

Substance: YLLLDEVRSKYCWGISCTGY
- amyloid nucleation score: inactive

Substance: FFYSYGRLNPKYDRVYISFG
- amyloid nucleation score: -0.661 ± 0.98

Substance: LIWFGGGPSRWSM
- amyloid nucleation score: -0.117 ± 1.1

Substance: FPGCSRENLTVGLSVTRTEG
- amyloid nucleation score: inactive

Substance: NMFRRPTVCTVQEQVTEMRV
- amyloid nucleation score: inactive

Substance: GIGNCYLMLQTKIFEWFFSE
- amyloid nucleation score: inactive

Substance: RTSVDQLEMKMRFSMSFGWL
- amyloid nucleation score: 0.449 ± 0.64

Substance: NLWYLVMLISDFCEPRKEWY
- amyloid nucleation score: inactive

Substance: TTCYTLFSTDENDNSKWICG
- amyloid nucleation score: inactive

Substance: YTFRMYGLMDNLHCAPWF
- amyloid nucleation score: inactive

Substance: TSSWYFILDVHCGSEGNSEA
- amyloid nucleation score: 0.438 ± 0.28

Substance: NFNCSANWYHLSLLTMNHEV
- amyloid nucleation score: inactive

Substance: NHMCSVYRWQSLERVVCKGI
- amyloid nucleation score: inactive

Substance: NSRNMVNGHLH
- amyloid nucleation score: inactive

Substance: RLSYQYFCQAMRMEGEFWSY
- amyloid nucleation score: -0.16 ± 0.33

Substance: ADRVSVIYMS
- amyloid nucleation score: inactive

Substance: FLIDDMYWSVMDTWI
- amyloid nucleation score: inactive

Substance: KSKNPIIVFTYRM
- amyloid nucleation score: 1.2 ± 0.14

Substance: YIYSVEEYSRTSLIDDSVGW
- amyloid nucleation score: inactive

Substance: TKAAMPRNNYLFILY
- amyloid nucleation score: -0.278 ± 0.71

Substance: VFLILFVLPLFYLNDSPGCA
- amyloid nucleation score: inactive

Substance: VFECLTFF
- amyloid nucleation score: -0.872 ± 1

Substance: IMVCKWTSPTSTMPHDDLGC
- amyloid nucleation score: inactive

Substance: ANHCLCRGSKYLRKRVNLAI
- amyloid nucleation score: inactive

Substance: GSASHDPTACCFYGFV
- amyloid nucleation score: inactive

Substance: NWIRS
- amyloid nucleation score: inactive

Substance: DYIYILSW
- amyloid nucleation score: inactive

Substance: FLFIHKLTCLSLVKWTGFLV
- amyloid nucleation score: inactive

Substance: PWDWWVDSACWRRRPVDDPR
- amyloid nucleation score: inactive

Substance: RFISEYCMFENKEMVEPSFG
- amyloid nucleation score: inactive

Substance: DWLDLSGVSCH
- amyloid nucleation score: -0.11 ± 0.62

Substance: EYSRMSSNQMVYSLVIFHNL
- amyloid nucleation score: 0.509 ± 0.33

Substance: PFHGSLDWSTTESAMT
- amyloid nucleation score: inactive

Substance: SNNLEGVLSVCDFVF
- amyloid nucleation score: inactive

Substance: NSISSSRIAVNFAKYGNWDV
- amyloid nucleation score: inactive

Substance: DLWHPMSY
- amyloid nucleation score: -0.466 ± 0.84

Substance: RMGHVFMYDYHIV
- amyloid nucleation score: inactive

Substance: VVPIVWHTGSSRVYTEGVLM
- amyloid nucleation score: -0.65 ± 1.3

Substance: YSDTFADNYLNCMHQVKCVN
- amyloid nucleation score: inactive

Substance: PFRFVKNLCGATG
- amyloid nucleation score: inactive

Substance: SRTSYYMPTIPCMMPMN
- amyloid nucleation score: inactive

Substance: SIGQHWLGS
- amyloid nucleation score: inactive

Substance: YYAATPGSYLAGGRWITLF
- amyloid nucleation score: 0.219 ± 0.47

Substance: NSVIGVFQLESSRRGLWDFI
- amyloid nucleation score: 1.52 ± 0.11

Substance: FKLHCSDRYECTKDLSHLWC
- amyloid nucleation score: inactive

Substance: RVLQKAPRWAMGFARW
- amyloid nucleation score: inactive

Substance: SSSLVRCHG
- amyloid nucleation score: inactive

Substance: MIRTFKNSYISNGHCMVRRH
- amyloid nucleation score: inactive
